Common to all, as to assay type: physicochemical
A short description of series [1]: Tube inversion concentration-temperature phase diagram. The note with it: for UCST: at solubility limit, extent of gelation η 0.5; for solubility limit: 50 mM Tris, 500 mM NaCl, pH 8.0. As to the method:
Tube Inversion Test. Immediately after concentration to 2 mM, the protein was incubated at 4° C. over the course of two weeks after aliquoting 150 μL into a 2 mL Eppendorf tube. The samples were visually assessed for gelation by inverting the tubes at 12-hour time intervals thereafter, with gelled samples not flowing upon inversion.
Gelation. To study the relative gelation of Q2 as compared to the previously reported coiled-coil hydrogel, Q, protein was successfully expressed (FIG. 24), purified (FIG. 25), and concentrated to 2 mM (1% w/v) in Tris buffer (50 mM Tris, 500 mM NaCl) at pH 8.0. Purity of the protein was measured to be >99% by SDS-PAGE (FIG. 26) and concentration was measured by BCA assay. Immediately following concentration, the gelation process of Q2 was studied using the microrheology assay described previously following incubation at 4° C. Separately, 150 μL samples were aliquoted for tube inversion tests performed after 2 weeks of incubation for visual assessment of gelation over time at 4° C. (FIG. 19a-d) and at concentrations from 1 mM to 3.5 mM with temperatures 5° C. to 25° C. using 0.5 mM and 5° C. step sizes, respectively, to create a matrix-based phase diagram (FIG. 19e). Temperature and concentration ranges were selected based on preliminary tube-inversion testing at high and low ends of the ranges.
Thermoresponsiveness and material strength. UCST behavior of protein hydrogels was assessed by testing […] samples via tube inversion in 2 mL microtubes after incubation for two weeks at various temperatures and concentrations. Temperature conditions were modulated in the range of 5-40° C. The concentration range was modified depending on if precipitation was visually noticeable in the microtube at an earlier concentration, indicating a solubility limit to our phase diagram, as has been done previously. […] As done with Q2, the UCST of the hydrogels was determined using a bivariate linear relationship for the extent of gelation where tubes that passed gelation by tube inversion were assigned a value of 1 (shown in black in FIG. 52a and FIG. 64a-d) and tubes that failed gelation by tube inversion (shown in red in FIG. 52a and FIG. 64a-d) were assigned a value of 0. The heatmap in FIG. 52a and FIG. 64a-d was used to denote the range of extent of gelation where the equation was employed to solve for the UCST using the solubility limit and solving for an extent of gelation, η, value of 0.5. The UCSTs (FIG. 52b) for the hydrogels studied here were 13.0° C., 35.9° C., 33.6° C., 17.5° C., and 22.9° C. for Q3-7, respectively, as compared to 17.0° C. for Q and 22.0° C. for Q2 found previously. Bivariate regression allowed for solving the coefficients for the dependence of temperature and concentration on gelation.
Tube Inversion. Binary sol-gel behavior was assessed using tube inversion. Immediately after concentration to 2 mM, 150 μL of Q hydrogel variants were incubated in 2 mL microtubes at 4° C. for two weeks. Gelation was visually observed by inverting the microtube and inspecting the sample for flow from the top of tube.

A short description of the next series: Parallel plate rheology. Conditions: 10 Hz, 5% strain. On the procedure:
Rheology. Mechanical integrity of the Q2 hydrogel was assessed using a stress-controlled rheometer (Discovery Hybrid Rheometer 2, TA Instruments) equipped with a parallel plate geometry. After complete gelation of a 2 mM sample at 4° C., the sample was loaded onto the 8 mm diameter lower and upper plates with a 0.2 mm geometry gap. Strain and frequency settings were informed from previous Q hydrogel studies where the storage modulus (G′) and loss modulus (G″) were measured over the frequency range 0.1-10 Hz with a 5% oscillation strain.
Rheology. Q hydrogel variants were assessed for relative mechanical integrity with a stress-controlled rheometer (Discovery Hybrid Rheometer 2, TA Instruments) equipped with a parallel plate geometry. In parallel with microrheology measurements, 100 μL of each variant was incubated at 4° C. Upon gelation as assessed by microrheology, hydrogels were loaded onto an 8 mm diameter lower and upper plate with a 0.2 mm geometry gap. Storage modulus (G′) and loss modulus (G″) were measured from 0.1-10 Hz with 5% oscillation strain.

Series [2] is described as follows: TEM of hydrogel nanofibers. The note with it: gel after incubation at 4 °C. On the procedure: Transmission Electron Microscopy. Transmission electron microscopy (TEM) images were taken with a FEI Talos L120C transmission electron microscope. The supramolecular assembly of Q2 and Q were monitored over the course of 60 and 144 hours, respectively (in correspondence with tube inversion and microrheology). TEM images were taken of the gel at times consistent with when microrheological measurements for Q2 for consistent fibril sizing. Samples were diluted to 50 μM and 3 μL was spotted on Formvar/carbon-coated copper grids followed by 5 μL wash with water, and 3 μL staining with 1% v/v uranyl acetate solution each with incubation times of 1 min. Following imaging, fibrils were sized in ImageJ software (Version 1.52q).
Transmission Electron Microscopy. Transmission electron microscopy (TEM) images were taken with a FEI Talos L120C transmission electron microscope. Samples were diluted to 50 μM and 3 μL was spotted on Formvar/carbon-coated copper grids followed by […] with water, and 3 μL staining with 1% v/v uranyl acetate solution each with incubation times of 1 min. Between steps, filter paper was used to gently wick the grids dry. Following imaging, minimum diameter nanofibers within the physically crosslinked hydrogel were sized in ImageJ software (Version 1.52q).

Series [3] in a line: CD temperature scans (melting temperature). On the procedure:
Circular Dichroism Spectroscopy. Secondary structure was first assessed using the Jasco J-815 CD spectrometer with a PTC-423S single position Peltier temperature control system. Wavelength scans were performed from 190 to 250 nm using 15 μM samples at 1 nm step sizes at 25° C. Temperature scans were performed at α-helical minimum 222 nm from 20 to 85° C. The mean residue ellipticity (MRE) was calculated as described previously. MRE at 222 nm and 208 nm and their ratios were used to assess relative helicity.
Circular Dichroism Spectroscopy. The secondary structure of Q2LTF and QLTF was assessed using a Jasco J-815 circular dischroism (CD) spectrometer with a PTC-423S single position Peltier temperature control system. Wavelength scans were performed from 195 to 250 nm at 1 nm step sizes by diluting the protein into water (at approximately 10 μM) in order to minimize the effects of sodium chloride. […] The mean residue ellipticity (MRE) was calculated as described.

The text below walks through data of patent US20240115742A1, “FLUORINATED FIBERS FOR MULTIMODAL 1H AND 19F MRI, ULTRASOUND, FLUORESCENCE DETECTION AND CONFORMATIONAL AND TEMPERATURE DETECTION BY 19F MRS” (New York University, priority 2022, published 2024).

Values joined by “and” are separate entries in the source; they are usually repeats but may differ in a detail not shown here. Identical values can stand only once. Square brackets hold non-standard residues; d marks the D form. Ends that are not written are not given here. LTF = trifluoroleucine

Consider “Q3: Q variant with V44I pore mutation, SEQ ID NO: 12 (MRGSHHHHHHGSIEGRVKEILFLKNTAYQMLLELKETNEALYDIRHLLQQQSKL) [Protein Q3]”, for which the UCST in series [1] is 13.0 °C. Besides, in the series “Parallel plate rheology”, the “loss modulus G″” value was 12±2 Pa and 12.3 ± 1.7 Pa; the “storage modulus G′” value was 83±35 Pa and 82.5 ± 35.4 Pa. In addition, the “hydrogel fibril diameter (TEM)” value in series [2] is recorded as 32.8±9.8 nm. For the same substance, the melting temperature in series [3] (CCM-bound, pH 4.0) is 61.9±2.0 °C. Also, the melting temperature in series [3] (native, 50 mM NaH2PO4 pH 4.0) turned out to be 61.0±4.9 °C.
In series [1], “Q5: Q hydrogel variant from Rosetta Monte Carlo search, SEQ ID NO: 14 (MRGSHHHHHHGSIEGRVKEITFIKKTIEQIAEEMKEINKAIHDIRHALENISKK) [Protein Q5]” showed a solubility limit of 3.5 mM and a UCST of 33.6 °C. Further, in the series “Parallel plate rheology”, the “loss modulus G″” value was 12±6 Pa and 11.8 ± 6.1 Pa; the “storage modulus G′” value is 229±52 Pa and 228.7 ± 52.2 Pa. Moreover, the “hydrogel fibril diameter (TEM)” value in series [2] is given as 22.2±8.4 nm.
Consider “Q2LTF: protein-engineered fluorinated coiled-coil fiber, Q2 with trifluoroleucine, SEQ ID NO: 20 (MRGSHHHHHHGSIEGRVKE[LTF][LTF]F[LTF]KKTAEQM[LTF]EE[LTF]KETNKA[LTF]HDVRH[LTF][LTF]ENQSK[LTF]; ends and bridges not checked) [Protein Q2LTF]”, for which the melting temperature in series [3] (in only water) is 32.6±1.6 °C; in series [3] (phosphate buffer (50 mM Na2HPO4, pH 8.0)), 65.0±2.9 °C.
Take “Q2: coiled-coil protein redesigned from Q for reduced lateral assembly, SEQ ID NO: 11 (MRGSHHHHHHGSIEGRVKELLFLKKTAEQMLEELKETNKALHDVRHLLENQSKL) [Protein Q2]”: in series [1], the solubility limit is reported as 3.5 mM and the UCST was determined as 22.0 °C. The “storage modulus G′” value in the series “Parallel plate rheology” was found to be 289.6±86.9 Pa. Besides, the “hydrogel fibril diameter (TEM)” value in series [2] was 28.9±8.6 nm. The melting temperature in series [3] (CCM-bound, pH 4.0) is 59.9±6.3 °C. Moreover, the melting temperature in series [3] (native, 50 mM NaH2PO4 pH 4.0) came to 43.4±4.0 °C.
In series [1], “Q: rationally designed pentameric coiled-coil derived from C, SEQ ID NO: 23 (MRGSHHHHHHGSIEGRVKEITFLKNTAPQMLRELQETNAALQDVRELLRQQSKL) [reference compound]” had a solubility limit of 3.5 mM and a UCST of 17.0 °C. Moreover, the “hydrogel fibril diameter (TEM)” value in series [2] turned out to be 40.5±25.2 nm. In series [3] (CCM-bound, pH 4.0), this substance had a melting temperature of 76.4±4.6 °C. This substance showed a melting temperature in series [3] (native, 50 mM NaH2PO4 pH 4.0) of 37.0±7.8 °C.
